In one data set the target is T1, Z-VDVAD-FMK.
T1 chain: VDVAD

The target in a further data set is T2, Ac-VDVAD-cho.
T2 chain: VDVAD

B1: Human recombinant caspase-2 (protein)
chain: GPVCLQVKPCTPEFYQTHFQLAYRLQSRPRGLALVLSNVHFTGEKELEFRSGGDVDHSTLVTLFKLLGYDVHVLCDQTAQEMQEKLQNFAQLPAHRVTDSCIVALLSHGVEGAIYGVDGKLLQLQEVFQLFDNANCPSLQNKPKMFFIQACRGDETDRGVDQQDGKNHAGSPGCEESDAGKEKLPKMRLPTRSDMICGYACLKGTAAMRNTKRGSWYIEALAQVFSERACDMHVADMLVKVNALIKDREGYAPGTEFHRCKEMSEYCSTLCRHLYLFPGHPPT
With B1, the “in vitro VDVAD-AMC cleavage by recombinant caspase-2” value is recorded as “as efficiently as commercially available caspase-2 reversible (Ac-VDVAD-Cho) or irreversible (Z-VDVAD-FMK) inhibitors” with Z-VDVAD-FMK, “as efficiently as commercially available caspase-2 reversible (Ac-VDVAD-Cho) or irreversible (Z-VDVAD-FMK) inhibitors” with Ac-VDVAD-cho and “is blocked by SEQ8” with SEQ8.
